In PMC5443830:

Target: Cry1AcMod activated toxin (Bacillus thuringiensis) (UniProt P05068)
Test: SDS-PAGE and western blot of the 200 kDa oligomer band

**Q.** How did the optical density of the 200 kDa oligomer band with BBMV from the resistant strain relative to BBMV from the susceptible strain (=100%) turn out when “Cry1AcMod activated toxin (from UniProt P05068 1-1178) (domain or fragment)” was run?
**A.** The optical density of the 200 kDa oligomer band with BBMV from the resistant strain relative to BBMV from the susceptible strain (=100%) was 100%.
